System: steviol glycoside
Assay: steviol glycoside bioconversion by E. coli expressing individual mutations of UGT SEQ ID NO: 14
Type: cell-based
Conditions: fold improvement of % conversion vs parent UGT SEQ ID NO: 14; stevia leaf extract and glucose fed; 37° C., 48 hr
Description: Fold improvement is with respect to % steviol glycoside conversion of the parent UGT enzyme of SEQ ID NO: 14. The UGT enzyme of SEQ ID NO: 15 has the following mutations from SEQ ID NO: 14: ins_A2_T3_RR, H59P, A238E, L417F. Stevia leaf extract and glucose were fed to the bioconversion strains. Bioconversion took place at 37° C. for 48 hr. Data were quantified by reverse phase LC DAD to quantify conversion of steviol glycosides.
Fold improvement (FI) is with respect to % steviol glycoside conversion.

Row | Molecule | FI %Stevioside→rebE | FI %rebA→rebD
1 | A143W: mutation to UGT enzyme of SEQ ID NO: 14 (protein) MATKNSSGMSLAERFWLTLSRSSLVVGRSCVEFEPETVPLLSTLRGKPITFLGLMPPLHEGRREDGEDATVRWLDAQPAKSVVYVALGSEVPLGVEKVHELALGLELAGTRFLWALRKPTGVSDADLLPAGFEERTRGRGVVWTRWVPQMSILAHAAVGAFLTHCGWNSTIEGLMFGHPLIMLPITGDQGPNARLIEAKNAGLQVARNDGDGSFDREGVAAAIRAVAVEEESSKVFQAKAKKLQEIVADMACHERYIDGFIQQLRSYKDDSGYSSSYAAAAGMHVVICPWLAFGHLLPCLDLAQRLASRGHRVSFVSTPRNISRLPPVRPALAPLVAFVALPLPRVEGLPDGAESTNDVPHDRPDMVELHRRAFDGLAAPFSEFLGTACADWVIVDSFHHWAAAAALEHKVPCAMMLLGSAEMIASIADERLEHAETESPAAAGQGRPAAAPTFEVARMKLIR | 1.3 | 1.3
2 | T37S: mutation to UGT enzyme of SEQ ID NO: 14 (protein) MATKNSSGMSLAERFWLTLSRSSLVVGRSCVEFEPESVPLLSTLRGKPITFLGLMPPLHEGRREDGEDATVRWLDAQPAKSVVYVALGSEVPLGVEKVHELALGLELAGTRFLWALRKPTGVSDADLLPAGFEERTRGRGVVATRWVPQMSILAHAAVGAFLTHCGWNSTIEGLMFGHPLIMLPITGDQGPNARLIEAKNAGLQVARNDGDGSFDREGVAAAIRAVAVEEESSKVFQAKAKKLQEIVADMACHERYIDGFIQQLRSYKDDSGYSSSYAAAAGMHVVICPWLAFGHLLPCLDLAQRLASRGHRVSFVSTPRNISRLPPVRPALAPLVAFVALPLPRVEGLPDGAESTNDVPHDRPDMVELHRRAFDGLAAPFSEFLGTACADWVIVDSFHHWAAAAALEHKVPCAMMLLGSAEMIASIADERLEHAETESPAAAGQGRPAAAPTFEVARMKLIR | 1.35 | 1.17
3 | V38F: mutation to UGT enzyme of SEQ ID NO: 14 (protein) MATKNSSGMSLAERFWLTLSRSSLVVGRSCVEFEPETFPLLSTLRGKPITFLGLMPPLHEGRREDGEDATVRWLDAQPAKSVVYVALGSEVPLGVEKVHELALGLELAGTRFLWALRKPTGVSDADLLPAGFEERTRGRGVVATRWVPQMSILAHAAVGAFLTHCGWNSTIEGLMFGHPLIMLPITGDQGPNARLIEAKNAGLQVARNDGDGSFDREGVAAAIRAVAVEEESSKVFQAKAKKLQEIVADMACHERYIDGFIQQLRSYKDDSGYSSSYAAAAGMHVVICPWLAFGHLLPCLDLAQRLASRGHRVSFVSTPRNISRLPPVRPALAPLVAFVALPLPRVEGLPDGAESTNDVPHDRPDMVELHRRAFDGLAAPFSEFLGTACADWVIVDSFHHWAAAAALEHKVPCAMMLLGSAEMIASIADERLEHAETESPAAAGQGRPAAAPTFEVARMKLIR | 1.33 | 1.19
4 | Q244K: mutation to UGT enzyme of SEQ ID NO: 14 (protein) MATKNSSGMSLAERFWLTLSRSSLVVGRSCVEFEPETVPLLSTLRGKPITFLGLMPPLHEGRREDGEDATVRWLDAQPAKSVVYVALGSEVPLGVEKVHELALGLELAGTRFLWALRKPTGVSDADLLPAGFEERTRGRGVVATRWVPQMSILAHAAVGAFLTHCGWNSTIEGLMFGHPLIMLPITGDQGPNARLIEAKNAGLQVARNDGDGSFDREGVAAAIRAVAVEEESSKVFQAKAKKLKEIVADMACHERYIDGFIQQLRSYKDDSGYSSSYAAAAGMHVVICPWLAFGHLLPCLDLAQRLASRGHRVSFVSTPRNISRLPPVRPALAPLVAFVALPLPRVEGLPDGAESTNDVPHDRPDMVELHRRAFDGLAAPFSEFLGTACADWVIVDSFHHWAAAAALEHKVPCAMMLLGSAEMIASIADERLEHAETESPAAAGQGRPAAAPTFEVARMKLIR | 1.25 | 1.16
5 | I427F: mutation to UGT enzyme of SEQ ID NO: 14 (protein) MATKNSSGMSLAERFWLTLSRSSLVVGRSCVEFEPETVPLLSTLRGKPITFLGLMPPLHEGRREDGEDATVRWLDAQPAKSVVYVALGSEVPLGVEKVHELALGLELAGTRFLWALRKPTGVSDADLLPAGFEERTRGRGVVATRWVPQMSILAHAAVGAFLTHCGWNSTIEGLMFGHPLIMLPITGDQGPNARLIEAKNAGLQVARNDGDGSFDREGVAAAIRAVAVEEESSKVFQAKAKKLQEIVADMACHERYIDGFIQQLRSYKDDSGYSSSYAAAAGMHVVICPWLAFGHLLPCLDLAQRLASRGHRVSFVSTPRNISRLPPVRPALAPLVAFVALPLPRVEGLPDGAESTNDVPHDRPDMVELHRRAFDGLAAPFSEFLGTACADWVIVDSFHHWAAAAALEHKVPCAMMLLGSAEMIASFADERLEHAETESPAAAGQGRPAAAPTFEVARMKLIR | 1.15 | 1.24
6 | T186I: mutation to UGT enzyme of SEQ ID NO: 14 (protein) MATKNSSGMSLAERFWLTLSRSSLVVGRSCVEFEPETVPLLSTLRGKPITFLGLMPPLHEGRREDGEDATVRWLDAQPAKSVVYVALGSEVPLGVEKVHELALGLELAGTRFLWALRKPTGVSDADLLPAGFEERTRGRGVVATRWVPQMSILAHAAVGAFLTHCGWNSTIEGLMFGHPLIMLPIIGDQGPNARLIEAKNAGLQVARNDGDGSFDREGVAAAIRAVAVEEESSKVFQAKAKKLQEIVADMACHERYIDGFIQQLRSYKDDSGYSSSYAAAAGMHVVICPWLAFGHLLPCLDLAQRLASRGHRVSFVSTPRNISRLPPVRPALAPLVAFVALPLPRVEGLPDGAESTNDVPHDRPDMVELHRRAFDGLAAPFSEFLGTACADWVIVDSFHHWAAAAALEHKVPCAMMLLGSAEMIASIADERLEHAETESPAAAGQGRPAAAPTFEVARMKLIR | 1.48 | 1.24
7 | C252R: mutation to UGT enzyme of SEQ ID NO: 14 (protein) MATKNSSGMSLAERFWLTLSRSSLVVGRSCVEFEPETVPLLSTLRGKPITFLGLMPPLHEGRREDGEDATVRWLDAQPAKSVVYVALGSEVPLGVEKVHELALGLELAGTRFLWALRKPTGVSDADLLPAGFEERTRGRGVVATRWVPQMSILAHAAVGAFLTHCGWNSTIEGLMFGHPLIMLPITGDQGPNARLIEAKNAGLQVARNDGDGSFDREGVAAAIRAVAVEEESSKVFQAKAKKLQEIVADMARHERYIDGFIQQLRSYKDDSGYSSSYAAAAGMHVVICPWLAFGHLLPCLDLAQRLASRGHRVSFVSTPRNISRLPPVRPALAPLVAFVALPLPRVEGLPDGAESTNDVPHDRPDMVELHRRAFDGLAAPFSEFLGTACADWVIVDSFHHWAAAAALEHKVPCAMMLLGSAEMIASIADERLEHAETESPAAAGQGRPAAAPTFEVARMKLIR | 1.25 | 1.19
8 | R45F: mutation to UGT enzyme of SEQ ID NO: 14 (protein) MATKNSSGMSLAERFWLTLSRSSLVVGRSCVEFEPETVPLLSTLFGKPITFLGLMPPLHEGRREDGEDATVRWLDAQPAKSVVYVALGSEVPLGVEKVHELALGLELAGTRFLWALRKPTGVSDADLLPAGFEERTRGRGVVATRWVPQMSILAHAAVGAFLTHCGWNSTIEGLMFGHPLIMLPITGDQGPNARLIEAKNAGLQVARNDGDGSFDREGVAAAIRAVAVEEESSKVFQAKAKKLQEIVADMACHERYIDGFIQQLRSYKDDSGYSSSYAAAAGMHVVICPWLAFGHLLPCLDLAQRLASRGHRVSFVSTPRNISRLPPVRPALAPLVAFVALPLPRVEGLPDGAESTNDVPHDRPDMVELHRRAFDGLAAPFSEFLGTACADWVIVDSFHHWAAAAALEHKVPCAMMLLGSAEMIASIADERLEHAETESPAAAGQGRPAAAPTFEVARMKLIR | 1.35 | 1.18
9 | M250K_A251E_C252L: mutation to UGT enzyme of SEQ ID NO: 14 (protein) MATKNSSGMSLAERFWLTLSRSSLVVGRSCVEFEPETVPLLSTLRGKPITFLGLMPPLHEGRREDGEDATVRWLDAQPAKSVVYVALGSEVPLGVEKVHELALGLELAGTRFLWALRKPTGVSDADLLPAGFEERTRGRGVVATRWVPQMSILAHAAVGAFLTHCGWNSTIEGLMFGHPLIMLPITGDQGPNARLIEAKNAGLQVARNDGDGSFDREGVAAAIRAVAVEEESSKVFQAKAKKLQEIVADKELHERYIDGFIQQLRSYKDDSGYSSSYAAAAGMHVVICPWLAFGHLLPCLDLAQRLASRGHRVSFVSTPRNISRLPPVRPALAPLVAFVALPLPRVEGLPDGAESTNDVPHDRPDMVELHRRAFDGLAAPFSEFLGTACADWVIVDSFHHWAAAAALEHKVPCAMMLLGSAEMIASIADERLEHAETESPAAAGQGRPAAAPTFEVARMKLIR | 1.40 | 1.23
10 | T453F: mutation to UGT enzyme of SEQ ID NO: 14 (protein) MATKNSSGMSLAERFWLTLSRSSLVVGRSCVEFEPETVPLLSTLRGKPITFLGLMPPLHEGRREDGEDATVRWLDAQPAKSVVYVALGSEVPLGVEKVHELALGLELAGTRFLWALRKPTGVSDADLLPAGFEERTRGRGVVATRWVPQMSILAHAAVGAFLTHCGWNSTIEGLMFGHPLIMLPITGDQGPNARLIEAKNAGLQVARNDGDGSFDREGVAAAIRAVAVEEESSKVFQAKAKKLQEIVADMACHERYIDGFIQQLRSYKDDSGYSSSYAAAAGMHVVICPWLAFGHLLPCLDLAQRLASRGHRVSFVSTPRNISRLPPVRPALAPLVAFVALPLPRVEGLPDGAESTNDVPHDRPDMVELHRRAFDGLAAPFSEFLGTACADWVIVDSFHHWAAAAALEHKVPCAMMLLGSAEMIASIADERLEHAETESPAAAGQGRPAAAPFFEVARMKLIR | 1.32 | 1.20
